Results taken from the Human Domainome abundance scans (Beltran et al. 2025).
± gives the uncertainty stated by the source.

B1: DNA topoisomerase 3-alpha, residues 812 to 851; numbered along this chain, Q13472 (parent)
chain: TCNCGQEAVLLTVRKEGPNRGRQFFKCNGGSCNFFLWADS
B2: Spectrin alpha chain, erythrocytic 1, residues 979 to 1036; numbered along this chain, P02549 (parent)
chain: EQRVMALYDFQARSPREVTMKKGDVLTLLSSINKDWWKVEAADHQGIVPAVYVRRLAH

Variants of: B1
Experiment: abundance fitness (aPCA) (normalised: wild type 0, dead -1); higher = more abundant; growth selection in yeast, the domain comes from the species named
Conditions: Homo sapiens

In order of rising abundance fitness:
1. C32P  -1.36 ± 0.4
2. C32G  -1.07 ± 0.25
3. D39M  -1.03 ± 0.22
4. C32V  -0.977 ± 0.25
5. C32R  -0.934 ± 0.26
6. D39L  -0.93 ± 0.15
7. N33L  -0.892 ± 0.37
8. C32T  -0.854 ± 0.26
9. D39R  -0.838 ± 0.49
10. F34L  -0.703 ± 0.15
11. N33V  -0.7 ± 0.11
12. A38P  -0.659 ± 0.13
13. D39Q  -0.63 ± 0.42
14. F34E  -0.626 ± 0.17
15. F34K  -0.576 ± 0.15
16. G30V  -0.574 ± 0.12
17. N33W  -0.572 ± 0.11
18. W37L  -0.52 ± 0.23
19. W37R  -0.51 ± 0.085
20. W37T  -0.483 ± 0.13
21. W37G  -0.48 ± 0.048
22. W37A  -0.477 ± 0.089
23. G30L  -0.473 ± 0.14
24. F35E  -0.447 ± 0.16
25. F35L  -0.444 ± 0.076
26. F34Q  -0.44 ± 0.3
27. F34H  -0.396 ± 0.22
28. F35P  -0.388 ± 0.16
29. G30A  -0.381 ± 0.2
30. F34R  -0.374 ± 0.2
31. A38D  -0.371 ± 0.21
32. F35V  -0.352 ± 0.14
33. C32S  -0.33 ± 0.41
34. G30S  -0.304 ± 0.069
35. A38V  -0.295 ± 0.13
36. W37K  -0.29 ± 0.13
37. G30W  -0.287 ± 0.36
38. S31W  -0.273 ± 0.11
39. L36Y  -0.265 ± 0.14
40. G30Q  -0.265 ± 0.071
41. L36V  -0.255 ± 0.09
42. F35W  -0.246 ± 0.11
43. F35Q  -0.241 ± 0.09
44. S31C  -0.239 ± 0.076
45. W37P  -0.239 ± 0.064
46. D39G  -0.227 ± 0.083
47. L36H  -0.22 ± 0.17
48. S31I  -0.209 ± 0.27
49. D39C  -0.205 ± 0.14
50. W37V  -0.19 ± 0.078
51. L36G  -0.177 ± 0.054
52. S31L  -0.176 ± 0.073
53. D39P  -0.171 ± 0.17
54. L36W  -0.134 ± 0.086
55. S31M  -0.13 ± 0.085
56. N33A  -0.12 ± 0.057
57. D39E  -0.105 ± 0.088
58. N33T  -0.075 ± 0.079
59. G29V  -0.074 ± 0.068
60. N33G  -0.072 ± 0.13
61. S31A  -0.072 ± 0.073
62. S31G  -0.071 ± 0.068
63. N33S  -0.057 ± 0.062
64. F35K  -0.014 ± 0.11
65. L36E  -0.013 ± 0.066
66. L36R  0.013 ± 0.058
67. L36M  0.022 ± 0.078
68. L36A  0.028 ± 0.045
69. S31Q  0.055 ± 0.099
70. L36F  0.063 ± 0.35
71. S31R  0.065 ± 0.051
72. S31D  0.077 ± 0.094
73. S31H  0.092 ± 0.088
74. S31K  0.112 ± 0.08
75. S31T  0.114 ± 0.11
76. L36S  0.134 ± 0.17
77. L36K  0.189 ± 0.081

Variants of: B2
Experiment: as above
Conditions: Homo sapiens

In order of rising abundance fitness:
1. Q11W  -1.23 ± 0.32
2. V18W  -1.03 ± 0.23
3. Y52W  -0.978 ± 0.41
4. L28R  -0.938 ± 0.18
5. L56R  -0.874 ± 0.2
6. V53T  -0.872 ± 0.33
7. D35P  -0.867 ± 0.42
8. A41E  -0.851 ± 0.49
9. M5W  -0.85 ± 0.17
10. V53S  -0.819 ± 0.26
11. V18R  -0.817 ± 0.16
12. V48W  -0.809 ± 0.29
13. D24Y  -0.805 ± 0.3
14. W36G  -0.778 ± 0.2
15. R3T  -0.778 ± 0.14
16. L28G  -0.756 ± 0.14
17. T19E  -0.73 ± 0.36
18. V48T  -0.727 ± 0.17
19. V48L  -0.717 ± 0.19
20. D35Q  -0.697 ± 0.31
21. D24R  -0.689 ± 0.28
22. D35L  -0.685 ± 0.098
23. W36K  -0.675 ± 0.29
24. S30A  -0.657 ± 0.14
25. V53W  -0.634 ± 0.43
26. D43W  -0.622 ± 0.23
27. T19P  -0.613 ± 0.15
28. M5A  -0.587 ± 0.14
29. R3E  -0.582 ± 0.38
30. V53P  -0.579 ± 0.42
31. E40V  -0.573 ± 0.21
32. V48M  -0.556 ± 0.36
33. W36V  -0.554 ± 0.42
34. V48R  -0.551 ± 0.19
35. D43V  -0.537 ± 0.23
36. Y52R  -0.53 ± 0.22
37. D24M  -0.527 ± 0.15
38. M5N  -0.512 ± 0.48
39. V48C  -0.502 ± 0.29
40. A41I  -0.482 ± 0.35
41. S30M  -0.463 ± 0.32
42. L56T  -0.448 ± 0.3
43. R3M  -0.448 ± 0.14
44. L56K  -0.417 ± 0.45
45. M5Q  -0.383 ± 0.21
46. Q11S  -0.372 ± 0.1
47. Y52H  -0.368 ± 0.45
48. M5S  -0.344 ± 0.15
49. S30C  -0.337 ± 0.28
50. D35R  -0.326 ± 0.2
51. S30K  -0.322 ± 0.26
52. A41Q  -0.287 ± 0.36
53. R3Q  -0.272 ± 0.11
54. V18C  -0.266 ± 0.21
55. D24S  -0.256 ± 0.24
56. M5T  -0.242 ± 0.14
57. R3W  -0.209 ± 0.26
58. A41L  -0.208 ± 0.16
59. D35N  -0.182 ± 0.24
60. L56C  -0.169 ± 0.44
61. A42S  -0.133 ± 0.25
62. D43N  -0.105 ± 0.31
63. Y52P  -0.075 ± 0.26
64. A57R  -0.053 ± 0.16
65. D35V  -0.037 ± 0.14
66. L56M  -0.029 ± 0.31
67. A57T  -0.022 ± 0.43
68. S30D  -0.013 ± 0.26
69. D35S  -0.006 ± 0.18
70. A42F  -0.002 ± 0.4
71. D24T  0.006 ± 0.41
72. L29V  0.016 ± 0.081
73. A41K  0.033 ± 0.21
74. V53C  0.039 ± 0.11
75. L29P  0.075 ± 0.33
76. M5E  0.081 ± 0.15
77. Q11V  0.097 ± 0.13
78. A41G  0.154 ± 0.08
79. M5I  0.162 ± 0.14
80. A57Q  0.18 ± 0.36
81. E40Q  0.188 ± 0.17
82. R3K  0.226 ± 0.099
83. A41S  0.232 ± 0.12
84. E40A  0.243 ± 0.058
85. R16A  0.254 ± 0.37
86. Y8A  0.346 ± 0.28
87. D43Q  0.413 ± 0.21
88. A57D  0.507 ± 0.19
89. D43G  0.567 ± 0.076
90. I32W  1.06 ± 0.31
